Results on four molecules are retold here after patent US20240324599A1, “PESTICIDAL ENZYMES FOR USE ON NEMATODES, INSECTS, AND MOLLUSKS” (priority 2023, published 2024).

Common to all, as to assay type: in vivo
In experiment [1] the test system is soybean cyst nematode (SCN, Heterodera glycines). The experiment is described as follows: Controlled environment soybean seed treatment trial: SCN cysts on roots. The note with it: Table 16.
Experiment [2] has as its system SCN juveniles (SCN HG type 1.2.5.7, race 2).
Description: To identify an additional esterase enzyme with efficacy in reducing SCN viability, we performed an in-vitro plate assay with a Pseudomonas sp. esterase (SEQ ID NO: 248) free enzyme direct treatment. The Pseudomonas sp. esterase (SEQ ID NO: 248) was produced by fermentation in Bacillus subtilis. The enzyme was cloned into a Bacillus expression plasmid p1797 with isopropyl β-d-1-thiogalactopyranoside (IPTG) inducible expression. The plasmid was transformed into B. subtilis, and the gene sequence was confirmed. The strain was grown in rich media until an optical density (OD) 0.2-0.5 was reached. Enzyme expression was then induced by addition of […] IPTG. Following the culture harvest, cells were removed by filtration through a […] filter. The culture filtrate containing the secreted enzyme was then collected and used for further applications.
(§1) SCN eggs were obtained from SCN HG type 1.2.5.7, race 2. Eggs were rinsed 4 times with sterile water. Eggs were transferred to a 6-well plate and resuspended in 5 mL of 3 mM ZnSO4. The plate was sealed with parafilm, covered with aluminum foil to prevent light from entering the plate, and placed in a plate growth chamber at 25° C. and 80% relative humidity. After 6-7 days of incubation, an estimate of hatched SCN juveniles was obtained from the well to determine the overall number of juveniles per 10 μL. The concentration of the hatchery solution was adjusted until it consisted of 20-30 juveniles per 10 μL.
Potato dextrose agar media containing chloramphenicol and chlortetracycline was prepared and added to sterile twenty-four-well cell culture plates (1 mL per well). The plates were divided according to the pre-determined N-value for each treatment (N=12-24). Each treatment being tested was added to the agar surface within each well at a rate of 40 μL per well. Without allowing the treatments to dry, 10 μL of the prepared nematode mixture was added to the agar surface within each well.
To quantify the treatments' effects on nematode viability, the nematodes were examined under a dissecting microscope at 20× magnification. Initial (T0) values for the number of live juveniles, number of dead juveniles and total number of juveniles were recorded immediately after preparation of each well. The plates were then wrapped in parafilm around the open edge, encased in aluminum foil, and placed in secondary containment. The secondary containment was placed in a plant growth chamber at 25° C. and 80% relative humidity. At approximately 24 hours post addition of juveniles, the plates were evaluated, and the number of live juveniles, dead juveniles and total number of juveniles were recorded (T24).
The difference in percent death at T0 vs T24 was calculated by subtracting the percent dead at TO [(#dead juveniles/total #juveniles)×100] from the percent dead at T24 [(#dead juveniles/#total juveniles originally present)×100]. […] If the ANOVA indicated a significant difference existed among treatments, Tukey's HSD post hoc test was used to perform a pairwise contrast between each set of treatments. Different letters denote statistically significant results at P<0.05.
as §1, with “from” for “from SCN”, “rinsed four” for “rinsed 4”, “and 80-90%” for “and 80%”, “from each” for “from the”
Potato dextrose agar media containing chloramphenicol and chlortetracycline was prepared and added to sterile twenty-four-well cell culture plates (1 mL per well). […]

The subject of experiment [3] is corn. The experiment is described as follows: Field trial: PytH Esterase corn seed treatment, yield. The note with it: for Yield: corn seed treatment, 0.5 fl oz/unit with Control Base Package. The text has this: 0.5 fl oz/unit of PythH Esterase from recombinant Bacillus subtilis fermentation (SEQ ID NO: 255) was coated onto Hybrid corn seeds treated with Fludioxinil fungicide, ipconazole fungicide, peridium 1006 polymer, and Sensient Red (colorant). A control treatment without esterase enzyme was also created. The seed treated with esterase and control seed was planted in replicated trials distributed across 10 replicated plots with 4 replicates of 100 ft2 each at each site.

In experiment [4] the test system is Diamondback moth (Plutella xylostella). Put plainly: Diet-surface overlay (DSO) bioassay. The note with it: Table 44, Lipase 0.14 U/mL diet. The method, then: (§2) Diet-surface overlay bioassays are conducted with artificial diet mixes without antibiotics in 1.5 cm^2 cell bioassay trays(s). Artificial diets are commercially available from Southland Products Inc. Diets were prepared by dispersing 0.5 mL of molten diet to each 1.5 cm^2 cell. After solidification, 0.1 mL enzyme treatments were dispersed on top of diet in each cell and the tray was gently rocked in an orbital shaker to spread the liquid uniformly over the diet surface. Trays were placed under clean airflow until the surface of each cell was uniformly dried. One or two 16-cell sections were used per treatment (the number in larvae treated was 16 or 32).
(§3) One healthy first instar larva was placed into each treatment cell, each 16-cell section was covered with a re-sealable lid and incubated at 27° C. and light-dark period of 16:8 hrs. After 7 days, and according to the species, the number of individuals in the following developmental categories was recorded.
(§4) Diamondback moth (Plutella xylostella): Dead Larva (lack of movement), Larva Stage I (≤50% relative size), Larva Stage II (100% relative size, full size), Early Pupa (light green color), Late Pupa (light-dark brown color), and Adult.
(§5) Negative/untreated controls were treated with filtered water and positive controls were treated with lethal doses of Bacillus thuringiensis subsp. Kurstaki (Btk) spores at 1000 ppm.

In experiment [5] the test system is Btk resistant Diamondback moth. The experiment is described as follows: Diet-surface overlay (DSO) bioassay. The note with it: Table 45. The method, then: as §2, §3, §4, §5
However, both neutral proteases reduced the number of individuals reaching adult stage.

The subject of experiment [6] is soybean. The experiment is described as follows: Field trial: Feruloyl Esterase soybean seed treatment, yield. The note with it: for Yield: soybean seed treatment, 1.0 fl oz/unit with Control Base Package. The text has this:
1 fl oz/unit of Feruloyl Esterase (SEQ ID NO:91) was coated onto soybean seeds treated with Fludioxinil fungicide, metalaxyl fungicide, thiamethoxam […], Seedwork 1037L polymer, and Sensient Red (colorant). A control treatment without esterase enzyme was also created. The seed treated with esterase and control seed was planted in replicated trials distributed across 5 replicated plots with 4 replicates of 30 ft^2 each at each site.

Where two headings read alike, the source gives them in different places.

B1: Pseudomonas sp. Esterase (protein, listed as Pseudomonas sp.)
chain: MTEPLILQPVKPADACVIWLHGLGADRYDFLPVAEALQEILLSTRFVLPQAPTRPVTINGGYAMPSWYDIKAMSPARAIDRDELEASADRIIELIEEQRSSGIDASRIFLAGFSQGGAVVYHTAFLKWQGPLGGVLALSTYAPTFSDELELSASQQRIPVLSLHGQFDNVVQNSMGRTAYEYLKAHGVTVTWQEYPMEHEVLPEEIRDIGTWLSERLR
As for B1, the “% Comparison to Control” value in experiment [1] (base control = 100%, change in brackets) was 90% (−10%). The “Average cysts per g of root tissue” value in experiment [1] (seed treatment, soybean 2830E3, concentrate = 4× volumetric concentration, base control 244.3) is 220.2 cysts per g of root tissue. For the same molecule, the “Difference in Percent Death of Nematodes for 0 to 24 Hours” value in experiment [2] (Table 17, 40 μL per well, water control 4%) stood at 22%; in experiment [2] (Table 32, 40 μL of each treatment per well, water only 4%), 22%. Besides, in experiment [2] (text to Table 32), the “difference in percent death during 24 hours” value came to 22%.

B2: Sphingobium wenxiniae (PytH) Esterase (protein, listed as Sphingobium wenxiniae)
chain: MTVTDIILIHGALNRGACYDAVVPLLEARGYRVHAPDLTGHTPGDGGHLSVVDMEHYTRPVADILARAEGQSILLGHSLGGASISWLAQHHPDKVAGLIYLTAVLTAPGITPETFVLPGEPNRGTPHALDLIQPVDEGRGLQADFSRLERLREVFMGDYPGEGMPPAEQFIQTQSTVPFGTPNPMEGRALEIPRLYIEALDDVVIPIAVQRQMQKEFPGPVAVVSLPASHAPYYSMPERLAEAIADFADAPAEYRQTATKAGPDRPAGADGGRADRADLP
With B2, the Yield in experiment [3] (control 205.5) was 208.8 Bu/A; in experiment [3] (control 13820.1), 14042.0 Kg/ha. Further, the “yield versus base seed treatment package, in words” value in experiment [3] (text to Table 57, 0.5 fl oz/unit) is recorded as “increased the yield”.

B3: Bacillus thuringiensis Lipase (Lip1) (protein, listed as Bacillus thuringiensis)
chain: MRLMRRCVALLIVFFIMAPMISTNVRAGVVKELKTGFPDQEVFTPGEWFLGQKPANYDENKPPILFVQGRNGNADSWYGKTVYHDINDMYDYALKAGYQTVFIQLYDAAGKGSASQWDNGKLLAQKLEEIYNHFGKKVNIVAHSKGGIDTQAALVGYGANRFVGNVITLATPHHGSNLADLSYSWWAGWLASILGQKDDGTYSLQMGEMAKFRSTIDNNPAAKLNRYYTVTGTSWGPVFSALSMGGLYLSSYGSNDGLVNECSAKLPYGTHLFTDSRFDHDNIRKGSAVFARIEPYLRTANVPVPALVASSTSSNENIEQLNTTSNQSILGGELPQNQWIEQTVAVDKKAEGIVSILTASSDVEVQMISPKGKVYTNKDSVITTGEGESFFGGATIRTFKFDKMDVGEWKVKMMTKQSKDAYLVVSDYKTGAPFVLQMPTKVKANKSEYKLKKSPVAPEMKGDLSITVRVVNKEGKLVSEFNELQNVNNNTFTGALKNIKQPGVYNVTMDIKGMNKEGKSYSRTIVKSVYVEK
modifications: Lipase (Lip1 H192)
Turning to B3, the “Dead Larva” value in experiment [4] (individuals of n = 16 after 7 days, water 0) came out at 0; in experiment [5] (Btk resistant strain, individuals of n = 32 after 7 days, U/mL diet: SEQ 76 1.4, Bc 3.8, Pf 5.2, water 3), 1. The “Larva Stage I” value stood at 0 in experiment [4] (n = 16, water 0) and 9 in experiment [5] (n = 32, doses as E86, water 0). The “Larva Stage II” value in experiment [4] (n = 16, water 0) is on record as 0; in experiment [5] (n = 32, doses as E86, water 0), 12. Further, the “Early Pupa” value in experiment [4] (n = 16, water 3) stood at 3; in experiment [5] (n = 32, doses as E86, water 7), 10. Also, the “Late Pupa” value in experiment [4] (n = 16, water 3) is listed as 13; in experiment [5] (n = 32, doses as E86, water 22), 0. Also, the Adult turned out to be 0 in experiment [4] (n = 16, water 10) and 0 in experiment [5] (n = 32, doses as E86, water 0).

B4: Beauveria bassiana Feruloyl Esterase A2 (protein, listed as Beauveria bassiana)
chain: MLSLLGFLGFAALAAAAPVRDQAFIPRTLVNRSIYDKLALYAGYTQLSNTGICARPSVPGVLYQFVESKDTDTQVSIWKVDAYKEFVIAIPGTSSARDNETNFDFALVPYQADNVRCPSCRVHKGYQAAWRSVMKQVQGNLTNLLGIHPDYTVTLTGHSLGGGLVSIAFPTLRNGPYNVTQAYTYGQPRAGNGAFANYVDGISGASDKEAGIFYRVTHANDLIPKLPPGIFGYKHSRTEYWESKPSMDNAASTYRCYGQEPADCNRNATGIDSKVHVTYAGMNVTCNKS
modifications: Feruloyl Esterase A2
For the molecule B4, the results for the Yield in experiment [6] (control 63.99) and in experiment [6] (control 4303.4) were 64.86 Bu/A and 4361.9 Kg/ha, respectively. Besides, the “yield versus base seed treatment package, in words” value in experiment [6] (text to Table 56, 1 fl oz/unit) is “increased the yield”.
